From patent publication US20210292422A1 (published 2021)
Values belong to the binder of their own block, whether it stands above or below them.

Legend:
LRP6E1E2 = target: T1, LRP6E1E2 (UniProt O75581 20-630); assay: BLI (Octet)
T1 chain: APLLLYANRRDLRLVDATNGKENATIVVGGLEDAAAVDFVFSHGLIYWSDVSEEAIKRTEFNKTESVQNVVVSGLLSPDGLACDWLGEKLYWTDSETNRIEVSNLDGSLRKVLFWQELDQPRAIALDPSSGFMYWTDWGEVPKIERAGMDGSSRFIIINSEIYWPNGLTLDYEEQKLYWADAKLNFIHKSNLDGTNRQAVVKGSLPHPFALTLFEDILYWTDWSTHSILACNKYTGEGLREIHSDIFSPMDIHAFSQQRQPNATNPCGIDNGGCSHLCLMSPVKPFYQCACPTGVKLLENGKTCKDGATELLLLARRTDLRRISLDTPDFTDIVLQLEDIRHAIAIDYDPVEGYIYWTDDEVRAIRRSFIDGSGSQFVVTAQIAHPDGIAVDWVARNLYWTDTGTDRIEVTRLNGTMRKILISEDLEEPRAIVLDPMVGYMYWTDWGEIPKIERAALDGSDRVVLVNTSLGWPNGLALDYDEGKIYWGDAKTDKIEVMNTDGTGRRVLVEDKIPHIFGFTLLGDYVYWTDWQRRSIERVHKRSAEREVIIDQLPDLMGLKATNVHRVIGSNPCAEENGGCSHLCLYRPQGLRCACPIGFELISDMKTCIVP

Frizzled 1 (Fzd1) = Frizzled 1 (Fzd1) (UniProt Q9UP38 111-230); assay: BLI (Octet)

Kd (LRP6E1E2): 16 nM
B1: L1:5:αGFP:Fc (bispecific antibody)
chain: DVKLVESGGGLVKLGGSLRLSCAASGFSFSTSYMSWVRQTPEKRLELVAAINLNGGSTYYSDTVKGRFTISRDNAKNTLYLQMSSLKSEDTAFYYCASELAGYGTPFAYWGQGTLVTVSAGSAASGSSGGSSSGADIVLTQSPATLSVTPGDSVSLSCKASQSISYNLHWYQQKSHESPRLLIKYTSQSISGIPSRFSGSGSGTDFTLTINNVETEDFGMYFCQQSNSWPLTFGAGTKLEVKGSGSGQVQLVESGGGLVQPGGSLRLSCAASGFTFSRYGMHWVRQAPGKGLEWVSGISSIGSNTYYADSVKGRFTISRDNSKNTLYLQMNSLRAEDTAVYYCARWYKTYIDVWGQGTLVTVSSGGGGSGGGGSGGGGSDIELTQPPSVSVAPGQTARISCSGDNLGKKYVYWYQQKPGQAPVLVIYGDDERPSGIPERFSGSNSGNTATLTISGTQAEDEADYYCASYDSSHILIVFGGGTKLTVLGSGSGDKTHTCPPCPAPEAAGGPSVFLFPPKPKDTLMISRTPEVTCVVVDVSHEDPEVKFNWYVDGVEVHNAKTKPREEQYNSTYRVVSVLTVLHQDWLNGKEYKCKVSNKALGAPIEKTISKAKGQPREPQVYTLPPSREEMTKNQVSLTCLVKGFYPSDIAVEWESNGQPENNYKTTPPVLDSDGSFFLYSKLTVDKSRWQQGNVFSCSVMHEALHNHYTQKSLSLSPGK

Kd (Frizzled 1 (Fzd1)): 2.5 nM
B2: αGFP:5:F1:Fc (bispecific antibody)
chain: QVQLVESGGGLVQPGGSLRLSCAASGFTFSRYGMHWVRQAPGKGLEWVSGISSIGSNTYYADSVKGRFTISRDNSKNTLYLQMNSLRAEDTAVYYCARWYKTYIDVWGQGTLVTVSSGGGGSGGGGSGGGGSDIELTQPPSVSVAPGQTARISCSGDNLGKKYVYWYQQKPGQAPVLVIYGDDERPSGIPERFSGSNSGNTATLTISGTQAEDEADYYCASYDSSHILIVFGGGTKLTVLGSGSGEVQLVESGGGLVQPGGSLRLSCAASGFTFSHYTLSWVRQAPGKGLEWVSVISGDGSYTYYADSVKGRFTISSDNSKNTLYLQMNSLRAEDTAVYYCARNFIKYVFANWGQGTLVTVSSGGGGSGGGGSGGGGSDIELTQPPSVSVAPGQTARISCSGDNIGSFYVHWYQQKPGQAPVLVIYDKSNRPSGIPERFSGSNSGNTATLTISGTQAEDEADYYCQSYANTLSLVFGGGTKLTVLGSGSGDKTHTCPPCPAPEAAGGPSVFLFPPKPKDTLMISRTPEVTCVVVDVSHEDPEVKFNWYVDGVEVHNAKTKPREEQYNSTYRVVSVLTVLHQDWLNGKEYKCKVSNKALGAPIEKTISKAKGQPREPQVYTLPPSREEMTKNQVSLTCLVKGFYPSDIAVEWESNGQPENNYKTTPPVLDSDGSFFLYSKLTVDKSRWQQGNVFSCSVMHEALHNHYTQKSLSLSPGK

Kd (Frizzled 1 (Fzd1)): 0.2 nM
B3: F1:5:αGFP:Fc (bispecific antibody)
chain: EVQLVESGGGLVQPGGSLRLSCAASGFTFSHYTLSWVRQAPGKGLEWVSVISGDGSYTYYADSVKGRFTISSDNSKNTLYLQMNSLRAEDTAVYYCARNFIKYVFANWGQGTLVTVSSGGGGSGGGGSGGGGSDIELTQPPSVSVAPGQTARISCSGDNIGSFYVHWYQQKPGQAPVLVIYDKSNRPSGIPERFSGSNSGNTATLTISGTQAEDEADYYCQSYANTLSLVFGGGTKLTVLGSGSGQVQLVESGGGLVQPGGSLRLSCAASGFTFSRYGMHWVRQAPGKGLEWVSGISSIGSNTYYADSVKGRFTISRDNSKNTLYLQMNSLRAEDTAVYYCARWYKTYIDVWGQGTLVTVSSGGGGSGGGGSGGGGSDIELTQPPSVSVAPGQTARISCSGDNLGKKYVYWYQQKPGQAPVLVIYGDDERPSGIPERFSGSNSGNTATLTISGTQAEDEADYYCASYDSSHILIVFGGGTKLTVLGSGSGDKTHTCPPCPAPEAAGGPSVFLFPPKPKDTLMISRTPEVTCVVVDVSHEDPEVKFNWYVDGVEVHNAKTKPREEQYNSTYRVVSVLTVLHQDWLNGKEYKCKVSNKALGAPIEKTISKAKGQPREPQVYTLPPSREEMTKNQVSLTCLVKGFYPSDIAVEWESNGQPENNYKTTPPVLDSDGSFFLYSKLTVDKSRWQQGNVFSCSVMHEALHNHYTQKSLSLSPGK
